Data set [1] addresses T1, CtXrn2 (Xrn2 WT, residues 1-875) (Thermochaetoides thermophila, UniProt G0S058).
T1 construct: gene CTHT_0008830; Xrn core, residues 1-875, C-terminal tag LEHHHHHH kept, E. coli BL21(DE3) CodonPlus-RIL, 100 kDa, single chain; Ile-delta1/Met methyl-labelled for NMR
T1 sequence (G0S058 1-875): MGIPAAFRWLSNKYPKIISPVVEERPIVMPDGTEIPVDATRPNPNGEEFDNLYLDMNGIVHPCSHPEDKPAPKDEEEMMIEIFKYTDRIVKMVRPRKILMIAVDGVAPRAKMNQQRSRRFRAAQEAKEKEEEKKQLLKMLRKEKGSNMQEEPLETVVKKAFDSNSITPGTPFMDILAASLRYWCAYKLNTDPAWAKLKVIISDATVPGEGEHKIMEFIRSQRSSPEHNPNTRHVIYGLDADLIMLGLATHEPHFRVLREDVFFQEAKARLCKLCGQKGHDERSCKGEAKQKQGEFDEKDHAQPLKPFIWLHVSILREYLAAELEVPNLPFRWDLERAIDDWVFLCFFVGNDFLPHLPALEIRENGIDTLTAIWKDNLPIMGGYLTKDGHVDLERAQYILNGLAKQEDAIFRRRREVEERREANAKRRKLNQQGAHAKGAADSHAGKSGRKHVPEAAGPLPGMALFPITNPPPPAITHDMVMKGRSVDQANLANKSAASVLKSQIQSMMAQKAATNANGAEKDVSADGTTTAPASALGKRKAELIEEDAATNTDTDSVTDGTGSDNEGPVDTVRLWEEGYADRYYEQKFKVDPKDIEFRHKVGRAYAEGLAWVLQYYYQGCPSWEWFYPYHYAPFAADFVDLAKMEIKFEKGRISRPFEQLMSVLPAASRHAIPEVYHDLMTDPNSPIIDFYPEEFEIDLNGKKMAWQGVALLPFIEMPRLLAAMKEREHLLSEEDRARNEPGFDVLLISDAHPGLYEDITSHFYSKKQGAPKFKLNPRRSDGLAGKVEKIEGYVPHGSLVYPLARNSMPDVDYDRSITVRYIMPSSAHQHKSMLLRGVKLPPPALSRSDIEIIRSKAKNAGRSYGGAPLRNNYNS
As to the kind of experiment: 1H-13C HMQC methyl-TROSY NMR chemical shift perturbation. Format: binding. The note with it: 313 K; 5 mM MgCl2; 50 uM protein; 500 uM pAp; around active site.

The target in data set [2] is T2, CtXrn2 (Xrn2 WT, residues 1-875) (Thermochaetoides thermophila, UniProt G0S058, A5F).
T2 construct: gene CTHT_0008830; Xrn core, residues 1-875, C-terminal tag LEHHHHHH kept, E. coli BL21(DE3) CodonPlus-RIL, 100 kDa, single chain; Ile-delta1/Met methyl-labelled for NMR
As to the kind of experiment: 1H-13C HMQC methyl-TROSY NMR. Format: binding. The note with it: 313 K; 5 mM MgCl2; 50 uM protein; 500 uM pAp.

Data set [3] addresses T3, CtXrn2 1-875 (WT) (Chaetomium thermophilum, UniProt G0S058 1-875).
T3 sequence: T1 sequence (G0S058 1-875)
As to the kind of experiment: fluorescence anisotropy; no Mg2+, with Zn2+; Fluorescence anisotropy: 25 mM HEPES pH 7.3, 125 mM NaCl, 0.002% Triton, no Mg2+, with Zn2+, temperature not stated (room temperature used for dG); NMR: 25 mM H. To be noted: protein: recombinant; label: fluorescein on 3' thiouridine (6-iodoacetamido-fluorescein); single strand.

Data set [4] has as its target T4, CtXrn2 deltaZnF (Chaetomium thermophilum, UniProt G0S058 1-875, del263-300).
T4 sequence: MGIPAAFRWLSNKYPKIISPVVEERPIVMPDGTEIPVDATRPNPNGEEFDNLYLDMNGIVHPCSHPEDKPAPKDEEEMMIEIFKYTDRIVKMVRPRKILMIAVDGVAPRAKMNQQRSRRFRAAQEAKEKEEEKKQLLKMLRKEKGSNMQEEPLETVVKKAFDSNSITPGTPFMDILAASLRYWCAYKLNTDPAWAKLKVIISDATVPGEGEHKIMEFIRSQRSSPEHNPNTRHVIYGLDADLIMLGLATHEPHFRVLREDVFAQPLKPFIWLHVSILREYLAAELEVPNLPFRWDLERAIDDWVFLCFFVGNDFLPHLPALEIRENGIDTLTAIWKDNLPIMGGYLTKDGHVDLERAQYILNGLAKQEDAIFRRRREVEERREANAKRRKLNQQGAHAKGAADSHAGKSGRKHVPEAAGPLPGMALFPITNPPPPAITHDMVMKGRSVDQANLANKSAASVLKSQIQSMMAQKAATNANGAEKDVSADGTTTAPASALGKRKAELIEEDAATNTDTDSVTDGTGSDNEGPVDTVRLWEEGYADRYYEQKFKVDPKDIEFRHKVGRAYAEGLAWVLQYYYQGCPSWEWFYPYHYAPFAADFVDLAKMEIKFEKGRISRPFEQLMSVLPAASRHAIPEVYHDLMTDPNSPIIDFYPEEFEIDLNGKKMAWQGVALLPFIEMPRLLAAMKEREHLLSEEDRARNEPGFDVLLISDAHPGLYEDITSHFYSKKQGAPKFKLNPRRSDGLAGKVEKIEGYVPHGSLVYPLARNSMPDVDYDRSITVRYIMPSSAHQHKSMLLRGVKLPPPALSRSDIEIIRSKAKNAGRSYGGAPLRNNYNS
The description is as above. The note with it: protein: recombinant; label: fluorescein on 3' thiouridine (6-iodoacetamido-fluorescein); single strand.

Data set [5] concerns the target T3, CtXrn2 1-875 (WT). Briefly: NMR (methyl-TROSY CSP); 5 mM Mg2+; RNA trimmed at 5' end; locked in pre-translocation state; Fluorescence anisotropy: 25 mM HEPES pH 7.3, 125 mM NaCl, 0.002% Triton, no Mg2+, with Zn2+, temperature not stated (room temperature used for dG); NMR: 25 mM H. The note with it: protein: recombinant; pseudoknot with unstructured 5' end.
For data set [6], the target named is T3, CtXrn2 1-875 (WT). As to the kind of experiment: NMR (methyl-TROSY CSP of M704); no Mg2+; active state not formed; Fluorescence anisotropy: 25 mM HEPES pH 7.3, 125 mM NaCl, 0.002% Triton, no Mg2+, with Zn2+, temperature not stated (room temperature used for dG); NMR: 25 mM H. To be noted: protein: recombinant; single strand.

T2 sequence (G0S058 entry or part of it A5F): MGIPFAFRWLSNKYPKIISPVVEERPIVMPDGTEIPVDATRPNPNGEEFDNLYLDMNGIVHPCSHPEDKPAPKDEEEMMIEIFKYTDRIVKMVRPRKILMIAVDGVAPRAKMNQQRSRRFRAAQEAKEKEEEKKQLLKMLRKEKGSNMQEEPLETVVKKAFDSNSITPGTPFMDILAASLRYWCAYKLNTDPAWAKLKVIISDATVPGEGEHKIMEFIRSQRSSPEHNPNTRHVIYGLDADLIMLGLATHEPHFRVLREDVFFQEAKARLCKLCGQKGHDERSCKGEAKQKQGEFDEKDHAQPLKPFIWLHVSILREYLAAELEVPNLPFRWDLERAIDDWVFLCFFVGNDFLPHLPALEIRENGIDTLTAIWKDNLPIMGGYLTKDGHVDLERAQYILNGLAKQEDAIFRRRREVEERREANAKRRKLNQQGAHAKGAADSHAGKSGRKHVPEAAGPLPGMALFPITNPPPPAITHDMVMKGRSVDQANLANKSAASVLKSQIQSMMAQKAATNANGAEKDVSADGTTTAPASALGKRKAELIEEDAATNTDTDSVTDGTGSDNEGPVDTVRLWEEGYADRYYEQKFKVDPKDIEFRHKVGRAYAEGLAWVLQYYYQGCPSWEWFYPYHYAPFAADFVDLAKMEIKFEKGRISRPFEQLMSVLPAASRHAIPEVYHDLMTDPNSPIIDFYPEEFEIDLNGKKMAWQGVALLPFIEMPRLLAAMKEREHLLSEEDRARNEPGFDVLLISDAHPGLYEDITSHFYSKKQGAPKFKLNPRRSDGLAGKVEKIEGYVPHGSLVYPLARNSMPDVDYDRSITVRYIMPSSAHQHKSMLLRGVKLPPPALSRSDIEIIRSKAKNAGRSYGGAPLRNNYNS

Take `Nc1ncnc2c1ncn2[C@@H]1O[C@H](COP(=O)(O)O)[C@@H](OP(=O)(O)O)[C@H]1O` [pAp]: the “1H-13C HMQC methyl-TROSY NMR chemical shift perturbation” value in data set [1] is recorded as “The binding of pAp to Xrn2 resulted in substantial chemical shift perturbations”. Further, the “1H-13C HMQC methyl-TROSY NMR” value in data set [2] was “HMQC spectra of the Xrn2 WT:pAp complex (black) and Xrn2 A5F:pAp complex (orange)”.

B1: 5-mer RNA (ssRNA)
RNA: GGAGU
modifications: 5'-monophosphate; 3'-terminal 4-thiouridine
As to B1, the binding result in data set [3] is on record as “binds”. The binding signal in data set [4] was 1.5 fold Kd increase vs WT.

B2: ZIKV xrRNA (structured_RNA)
RNA: GGGAGUGUUGUAAGCACCAAUUUUAGUGUUGUCAGGCCGGCGAAAGUCGCCACAGUUUGGGGAAAGCUGUGCAGCCUGUAACCCCCCCACGAAAGUGGG
modifications: 5'-monophosphate
Consider B2, for which the binding result in data set [5] is “binds”.

B3: pdA5 (ssDNA)
DNA: AAAAA
modifications: 5'-phosphate
Regarding B3, the binding result in data set [6] is “binds”.

B4: 10-mer RNA (ssRNA)
RNA: GGAGGAGAGU
modifications: 5'-monophosphate; 3'-terminal 4-thiouridine
Take B4: the binding result in data set [3] was “binds”. The binding signal in data set [4] was about 3 fold Kd increase vs WT.

Source of the values: paper PMC9512700, “Observation of conformational changes that underlie the catalytic cycle of Xrn2” (Nature Chemical Biology, 2022).
